± gives the uncertainty stated by the source.
B1: library; the commonest letter at each place (parent)
chain: MKPVTLYDVAEYAGVSYQTVSRVVNQASHVSAKTREKVEAAMAELNYIPNRVAQQLAGKQSLLIGVATSSLALHAPSQIVAAIKSRADQLGASVVVSMVERSGVEACKAAVHNLLAQRVSGLIINYPLDDQDAIAVEAACTNVPALFLDVSDQTPINSIIFSHEDGTRLGVEHLVALGHQQIALLAGPLSSVSARLRLAGWHKYLTRNQIQPIAEREGDWSAMSGFQQTMQMLNEGIVPTAMLVANDQMALGAMRAITESGLRVGADISVVGYDDTEDSSCYIPPLTTIKQDFRLLGQTSVDRLLQLSQGQAVKGNQLLPVSLVKRKTTLAPNTQTASPRALADSLMQLARQVSRLESGQ

Columns and labels:
Conditions in all cases: with IPTG
IPTG [1] = variants of: B1
Summary of the method: (§1)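 Geometric mean YFP fluorescence from gated, bead-calibrated (MEF) flow cytometry was fitted against IPTG with Bayesian MCMC Hill models over non-outlier replicates to yield EC50, G0, G∞ and n with uncertainties. The E. coli MG1655Δlac cells held LacI on pVER and eYFP behind lacO and were grown at 37 °C in rich M9 with kanamycin. They were then grown in two 160-min steps across a 2-fold IPTG series plus no IPTG and diluted in PBS with chloramphenicol before reading.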

IPTG [2] = variants of: B1; experiment: Hill coefficient n (dimensionless); higher = steeper dose response
Summary of the method: as §1

IPTG [3] = variants of: B1; experiment: basal output G0 (YFP, no IPTG) (log10 MEF); higher = higher reporter expression without inducer
Summary of the method: as §1

IPTG [4] = variants of: B1; experiment: saturating output G-infinity (YFP) (log10 MEF); higher = higher reporter expression at saturating IPTG
Summary of the method: as §1

| Variant | EC50 for IPTG (log10 µmol/L) (IPTG [1]) | Hill coefficient n (IPTG [2]) | basal output G0 (log10) (IPTG [3]) | saturating output G-infinity (log10) (IPTG [4]) |
| --- | --- | --- | --- | --- |
| D130E | 1.902 ± 0.012 | 1.76 ± 0.057 | 2.29 ± 0.45 | 4.467 ± 0.0052 |
| A138T A214V V244L | 1.808 ± 0.0078 | 1.61 ± 0.025 | 2.43 ± 0.047 | 4.4294 ± 0.0033 |
| S97T V136E | 1.37 ± 0.038 | 1.42 ± 0.12 | 3.05 ± 0.078 | 4.331 ± 0.013 |
| L296R | 4.37 ± 0.045 | 1.33 ± 0.051 | 2.995 ± 0.0098 | 4.383 ± 0.025 |
| G200C | 2.729 ± 0.016 | 1.58 ± 0.049 | 1.48 ± 0.68 | 4.489 ± 0.0069 |
| P285S V301M S308P M347V | 0.927 ± 0.019 | 1.33 ± 0.057 | 3.595 ± 0.017 | 4.489 ± 0.0054 |
| Y273H D278G Q335L E357G | 3.07 ± 0.09 | 1.62 ± 0.14 | 2.16 ± 0.11 | 4.07 ± 0.075 |
| I160N R263S L305Q | 2.561 ± 0.022 | 1.61 ± 0.054 | 1.14 ± 0.59 | 4.285 ± 0.012 |
| V271M | 2.089 ± 0.0097 | 1.64 ± 0.034 | 2.19 ± 0.19 | 4.413 ± 0.0046 |
| Q291L | 2.064 ± 0.017 | 1.61 ± 0.052 | 2.22 ± 0.21 | 4.407 ± 0.0075 |
| S97T F161V | 2.22 ± 0.032 | 1.59 ± 0.087 | 2.49 ± 0.21 | 4.47 ± 0.016 |
| F161V | 2.58 ± 0.015 | 1.59 ± 0.044 | 1.98 ± 0.34 | 4.455 ± 0.0069 |
| F161S | 1.12 ± 0.017 | 1.43 ± 0.047 | 3.04 ± 0.036 | 4.464 ± 0.0055 |
| F161L | 3.161 ± 0.0097 | 1.32 ± 0.022 | 1.83 ± 0.42 | 4.38 ± 0.0037 |
| K203N D278V S280L I283V | 1.8 ± 0.022 | 1.73 ± 0.085 | 3.192 ± 0.021 | 4.401 ± 0.009 |
| Q317L | 2.051 ± 0.0097 | 1.66 ± 0.041 | 2.08 ± 0.5 | 4.4477 ± 0.0044 |
| S120G M223L F226L L319F R355L | 2.248 ± 0.015 | 1.51 ± 0.035 | 2.781 ± 0.021 | 4.407 ± 0.0067 |
| V301M | 1.82 ± 0.049 | 1.53 ± 0.16 | 2.32 ± 0.83 | 4.469 ± 0.021 |
| I160N Q231H I289V D302E | 2.6 ± 0.026 | 1.67 ± 0.073 | 2.06 ± 0.43 | 4.284 ± 0.015 |
| N113D D132N T154R M242I V313A K314N R340S | 2.033 ± 0.011 | 1.64 ± 0.048 | 1.59 ± 0.65 | 4.226 ± 0.0048 |
| V96E T154I S158R V238D M254I V264I | 2.37 ± 0.029 | 1.37 ± 0.067 | 4.479 ± 0.01 | 3.19 ± 0.03 |
| S190C | 2.091 ± 0.0053 | 1.65 ± 0.019 | 2.31 ± 0.049 | 4.4474 ± 0.0025 |

| Variant | EC50 for IPTG (log10 µmol/L) (IPTG [1]) | Hill coefficient n (IPTG [2]) | basal output G0 (log10) (IPTG [3]) | saturating output G-infinity (log10) (IPTG [4]) |
| --- | --- | --- | --- | --- |
| N208Y | 2.01 ± 0.0066 | 1.64 ± 0.026 | 2.24 ± 0.14 | 4.4021 ± 0.003 |
| G103D H202Y P284T | 1.5 ± 0.016 | 1.64 ± 0.075 | 2.85 ± 0.11 | 4.458 ± 0.0062 |
| Q181H | 2.037 ± 0.0042 | 1.625 ± 0.015 | 2.24 ± 0.049 | 4.4146 ± 0.0018 |
| G121V G261V | 1.847 ± 0.017 | 1.58 ± 0.052 | 2.58 ± 0.083 | 4.418 ± 0.0075 |
| L169P | 2.678 ± 0.026 | 1.34 ± 0.061 | 2.72 ± 0.067 | 4.3 ± 0.0095 |
| E100V T299I | 0.9867 ± 0.0075 | 1.54 ± 0.032 | 3.09 ± 0.037 | 4.4562 ± 0.0024 |
| V136E S279T | 0.991 ± 0.11 | 2.42 ± 0.69 | 3.916 ± 0.02 | 4.035 ± 0.0064 |
| N125D | 2.739 ± 0.019 | 1.27 ± 0.038 | 2.73 ± 0.035 | 4.445 ± 0.0072 |
| V136E L169P | 4.914 ± 0.028 | 2.33 ± 0.32 | 4.5429 ± 0.0026 | 1.85 ± 1.1 |
| V136E F161V | 3.713 ± 0.031 | 1.84 ± 0.2 | 4.516 ± 0.0031 | 4.229 ± 0.011 |
| S97T | 1.59 ± 0.023 | 1.58 ± 0.067 | 2.61 ± 0.16 | 4.572 ± 0.01 |
| V95M A337T | 2.109 ± 0.018 | 1.59 ± 0.082 | 2.13 ± 0.64 | 4.23 ± 0.0081 |
| V136E | 1.69 ± 0.034 | 1.5 ± 0.13 | 2.46 ± 0.36 | 4.015 ± 0.014 |
| V99E A116T T141I S190C | 0.86 ± 0.015 | 1.33 ± 0.047 | 3.534 ± 0.013 | 4.454 ± 0.0039 |
| S279T | 1.481 ± 0.012 | 1.48 ± 0.03 | 2.68 ± 0.034 | 4.458 ± 0.0048 |
| V95M Q335R Q360R | 2.01 ± 0.05 | 1.49 ± 0.13 | 2.02 ± 0.65 | 4.169 ± 0.022 |
| V96M | 2.315 ± 0.015 | 1.46 ± 0.048 | 1.73 ± 0.53 | 4.175 ± 0.006 |
| S97T G200C | 2.162 ± 0.012 | 1.65 ± 0.041 | 2.68 ± 0.043 | 4.442 ± 0.0057 |
| Q231R | 2.063 ± 0.0082 | 1.67 ± 0.03 | 2.29 ± 0.081 | 4.3759 ± 0.0039 |
| A109E D165V G166A R255C E259G | 0.842 ± 0.018 | 1.33 ± 0.06 | 3.421 ± 0.019 | 4.417 ± 0.0048 |
| I160F L185F | 3.06 ± 0.056 | 1.77 ± 0.11 | 2.08 ± 0.16 | 4.19 ± 0.048 |
| A194V | 3.35 ± 0.048 | 1.61 ± 0.06 | 2.01 ± 0.08 | 4.322 ± 0.041 |

— the supplement of paper PMC10057847, “Precision engineering of biological function with large-scale measurements and machine learning” (PLOS ONE, 2023)
